# B1: BCAR1 (protein, UniProt P56945 1-870, looked up)
# Breast cancer anti-estrogen …: MNHLNVLAKALYDNVAESPDELSFRKGDIMTVLEQDTQGLDGWWLCSLHGRQGIVPGNRLKILVGMYDKKPAGPGPGPPATPAQPQPGLHAPAPPASQYTPMLPNTYQPQPDSVYLVPTPSKAQQGLYQVPGPSPQFQSPPAKQTSTFSKQTPHHPFPSPATDLYQVPPGPGGPAQDIYQVPPSAGMGHDIYQVPPSMDTRSWEGTKPPAKVVVPTRVGQGYVYEAAQPEQDEYDIPRHLLAPGPQDIYDVPPVRGLLPSQYGQEVYDTPPMAVKGPNGRDPLLEVYDVPPSVEKGLPPSNHHAVYDVPPSVSKDVPDGPLLREETYDVPPAFAKAKPFDPARTPLVLAAPPPDSPPAEDVYDVPPPAPDLYDVPPGLRRPGPGTLYDVPRERVLPPEVADGGVVDSGVYAVPPPAEREAPAEGKRLSASSTGSTRSSQSASSLEVAGPGREPLELEVAVEALARLQQGVSATVAHLLDLAGSAGATGSWRSPSEPQEPLVQDLQAAVAAVQSAVHELLEFARSAVGNAAHTSDRALHAKLSRQLQKMEDVHQTLVAHGQALDAGRGGSGATLEDLDRLVACSRAVPEDAKQLASFLHGNASLLFRRTKATAPGPEGGGTLHPNPTDKTSSIQSRPLPSPPKFTSQDSPDGQYENSEGGWMEDYDYVHLQGKEEFEKTQKELLEKGSITRQGKSQLELQQLKQFERLEQEVSRPIDHDLANWTPAQPLAPGRTGGLGPSDRQLLLFYLEQCEANLTTLTNAVDAFFTAVATNQPPKIFVAHSKFVILSAHKLVFIGDTLSRQAKAADVRSQVTHYSNLLCDLLRGIVATTKAAALQYPSPSAAQDMVERVKELGHSTQQFRRVLGQLAAA
# B2: CD68 (protein, UniProt P34810 22-354, looked up)
# Macrosialin: NDCPHKKSATLLPSFTVTPTVTESTGTTSHRTTKSHKTTTHRTTTTGTTSHGPTTATHNPTTTSHGNVTVHPTSNSTATSQGPSTATHSPATTSHGNATVHPTSNSTATSPGFTSSAHPEPPPPSPSPSPTSKETIGDYTWTNGSQPCVHLQAQIQIRVMYTTQGGGEAWGISVLNPNKTKVQGSCEGAHPHLLLSFPYGHLSFGFMQDLQQKVVYLSYMAVEYNVSFPHAAQWTFSAQNASLRDLQAPLGQSFSCSNSSIILSPAVHLDLLSLRLQAAQLPHTGVFGQSFSCPSDRSILLPLIIGLILLGLLALVLIAFCIIRRRPSAYQAL
# B3: ARS2 (protein, UniProt Q9BXP5 2-876, looked up)
# Serrate RNA effector molecule …: GDSDDEYDRRRRDKFRRERSDYDRSRERDERRRGDDWNDREWDRGRERRSRGEYRDYDRNRRERFSPPRHELSPPQKRMRRDWDEHSSDPYHSGYEMPYAGGGGGPTYGPPQPWGHPDVHIMQHHVLPIQARLGSIAEIDLGVPPPVMKTFKEFLLSLDDSVDETEAVKRYNDYKLDFRRQQMQDFFLAHKDEEWFRSKYHPDEVGKRRQEARGALQNRLRVFLSLMETGWFDNLLLDIDKADAIVKMLDAAVIKMEGGTENDLRILEQEEEEEQAGKPGEPSKKEEGRAGAGLGDGERKTNDKDEKKEDGKQAENDSSNDDKTKKSEGDGDKEEKKEDSEKEAKKSSKKRNRKHSGDDSFDEGSVSESESESESGQAEEEKEEAEEALKEKEKPKEEEWEKPKDAAGLECKPRPLHKTCSLFMRNIAPNISRAEIISLCKRYPGFMRVALSEPQPERRFFRRGWVTFDRSVNIKEICWNLQNIRLRECELSPGVNRDLTRRVRNINGITQHKQIVRNDIKLAAKLIHTLDDRTQLWASEPGTPPLPTSLPSQNPILKNITDYLIEEVSAEEEELLGSSGGAPPEEPPKEGNPAEINVERDEKLIKVLDKLLLYLRIVHSLDYYNTCEYPNEDEMPNRCGIIHVRGPMPPNRISHGEVLEWQKTFEEKLTPLLSVRESLSEEEAQKMGRKDPEQEVEKFVTSNTQELGKDKWLCPLSGKKFKGPEFVRKHIFNKHAEKIEEVKKEVAFFNNFLTDAKRPALPEIKPAQPPGPAQILPPGLTPGLPYPHQTPQGLMPYGQPRPPILGYGAGAVRPAVPTGGPPYPHAPYGAGRGNYDAFRGQGGYPGKPRNRMVRGDPRAIVEYRDLDAPDDVDFF
# B4: ANKRD28 (protein, UniProt O15084 1-1053, looked up)
# Serine/threonine-protein …: MAFLKLRDQPSLVQAIFNGDPDEVRALIFKKEDVNFQDNEKRTPLHAAAYLGDAEIIELLILSGARVNAKDSKWLTPLHRAVASCSEEAVQVLLKHSADVNARDKNWQTPLHIAAANKAVKCAEALVPLLSNVNVSDRAGRTALHHAAFSGHGEMVKLLLSRGANINAFDKKDRRAIHWAAYMGHIEVVKLLVSHGAEVTCKDKKSYTPLHAAASSGMISVVKYLLDLGVDMNEPNAYGNTPLHVACYNGQDVVVNELIDCGAIVNQKNEKGFTPLHFAAASTHGALCLELLVGNGADVNMKSKDGKTPLHMTALHGRFSRSQTIIQSGAVIDCEDKNGNTPLHIAARYGHELLINTLITSGADTAKRGIHGMFPLHLAALSGFSDCCRKLLSSGFDIDTPDDFGRTCLHAAAAGGNLECLNLLLNTGADFNKKDKFGRSPLHYAAANCNYQCLFALVGSGASVNDLDERGCTPLHYAATSDTDGKCLEYLLRNDANPGIRDKQGYNAVHYSAAYGHRLCLQLIASETPLDVLMETSGTDMLSDSDNRATISPLHLAAYHGHHQALEVLVQSLLDLDVRNSSGRTPLDLAAFKGHVECVDVLINQGASILVKDYILKRTPIHAAATNGHSECLRLLIGNAEPQNAVDIQDGNGQTPLMLSVLNGHTDCVYSLLNKGANVDAKDKWGRTALHRGAVTGHEECVDALLQHGAKCLLRDSRGRTPIHLSAACGHIGVLGALLQSAASMDANPATADNHGYTALHWACYNGHETCVELLLEQEVFQKTEGNAFSPLHCAVINDNEGAAEMLIDTLGASIVNATDSKGRTPLHAAAFTDHVECLQLLLSHNAQVNSVDSTGKTPLMMAAENGQTNTVEMLVSSASAELTLQDNSKNTALHLACSKGHETSALLILEKITDRNLINATNAALQTPLHVAARNGLTMVVQELLGKGASVLAVDENGYTPALACAPNKDVADCLALILATMMPVSSSSPLSSLTFNAINRYTNTSKTVSFEALPIMRNEPSSYCSFNNIGGEQEYLYTDVDELNDSDSETY
# B5: ARHGEF6 (protein, UniProt Q15052 1-776, looked up)
# Rho guanine nucleotide …: MNPEEQIVTWLISLGVLESPKKTICDPEEFLKSSLKNGVVLCKLINRLMPGSVEKFCLDPQTEADCINNINDFLKGCATLQVEIFDPDDLYSGVNFSKVLSTLLAVNKATEDQLSERPCGRSSSLSAANTSQTNPQGAVSSTVSGLQRQSKTVEMTENGSHQLIVKARFNFKQTNEDELSVCKGDIIYVTRVEEGGWWEGTLNGRTGWFPSNYVREIKSSERPLSPKAVKGFETAPLTKNYYTVVLQNILDTEKEYAKELQSLLVTYLRPLQSNNNLSTVEVTSLLGNFEEVCTFQQTLCQALEECSKFPENQHKVGGCLLSLMPHFKSMYLAYCANHPSAVNVLTQHSDELEQFMENQGASSPGILILTTNLSKPFMRLEKYVTLLQELERHMEDTHPDHQDILKAIVAFKTLMGQCQDLRKRKQLELQILSEPIQAWEGEDIKNLGNVIFMSQVMVQYGACEEKEERYLMLFSNVLIMLSASPRMSGFIYQGKIPIAGTVVTRLDEIEGNDCTFEITGNTVERIVVHCNNNQDFQEWLEQLNRLIRGPASCSSLSKTSSSSCSAHSSFSSTGQPRGPLEPPQIIKPWSLSCLRPAPPLRPSAALGYKERMSYILKESSKSPKTMKKFLHKRKTERKPSEEEYVIRKSTAALEEDAQILKVIEAYCTSANFQQGHGSSTRKDSIPQVLLPEEEKLIIEETRSNGQTIMEEKSLVDTVYALKDEVRELKQENKRMKQCLEEELKSRRDLEKLVRRLLKQTDECIRGESSSKTSILP
# B6: ARFIP2 (protein, UniProt P53365 1-341, looked up)
# Arfaptin-2: MTDGILGKAATMEIPIHGNGEARQLPEDDGLEQDLQQVMVSGPNLNETSIVSGGYGGSGDGLIPTGSGRHPSHSTTPSGPGDEVARGIAGEKFDIVKKWGINTYKCTKQLLSERFGRGSRTVDLELELQIELLRETKRKYESVLQLGRALTAHLYSLLQTQHALGDAFADLSQKSPELQEEFGYNAETQKLLCKNGETLLGAVNFFVSSINTLVTKTMEDTLMTVKQYEAARLEYDAYRTDLEELSLGPRDAGTRGRLESAQATFQAHRDKYEKLRGDVAIKLKFLEENKIKVMHKQLLLFHNAVSAYFAGNQKQLEQTLQQFNIKLRPPGAEKPSWLEEQ
# B7: BCAN (protein, UniProt Q96GW7 23-911, looked up)
# Brevican core protein: DVLEGDSSEDRAFRVRIAGDAPLQGVLGGALTIPCHVHYLRPPPSRRAVLGSPRVKWTFLSRGREAEVLVARGVRVKVNEAYRFRVALPAYPASLTDVSLALSELRPNDSGIYRCEVQHGIDDSSDAVEVKVKGVVFLYREGSARYAFSFSGAQEACARIGAHIATPEQLYAAYLGGYEQCDAGWLSDQTVRYPIQTPREACYGDMDGFPGVRNYGVVDPDDLYDVYCYAEDLNGELFLGDPPEKLTLEEARAYCQERGAEIATTGQLYAAWDGGLDHCSPGWLADGSVRYPIVTPSQRCGGGLPGVKTLFLFPNQTGFPNKHSRFNVYCFRDSAQPSAIPEASNPASNPASDGLEAIVTVTETLEELQLPQEATESESRGAIYSIPIMEDGGGGSSTPEDPAEAPRTLLEFETQSMVPPTGFSEEEGKALEEEEKYEDEEEKEEEEEEEEVEDEALWAWPSELSSPGPEASLPTEPAAQEESLSQAPARAVLQPGASPLPDGESEASRPPRVHGPPTETLPTPRERNLASPSPSTLVEAREVGEATGGPELSGVPRGESEETGSSEGAPSLLPATRAPEGTRELEAPSEDNSGRTAPAGTSVQAQPVLPTDSASRGGVAVVPASGDCVPSPCHNGGTCLEEEEGVRCLCLPGYGGDLCDVGLRFCNPGWDAFQGACYKHFSTRRSWEEAETQCRMYGAHLASISTPEEQDFINNRYREYQWIGLNDRTIEGDFLWSDGVPLLYENWNPGQPDSYFLSGENCVVMVWHDQGQWSDVPCNYHLSYTCKMGLVSCGPPPELPLAQVFGRPRLRYEVDTVLRYRCREGLAQRNLPLIRCQENGRWEAPQISCVPRRPARALHPEEDPEGRQGRLLGRWKALLIPPSSPMPGP
# Target: T1, HCV proteins (Hepatitis C virus genotype 1b, UniProt Q9WMX2)
# T1 construct: expressed in transfected cells
# Assay: Validation by Y2H pairwise matrices;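 further: yeast two-hybrid pairwise tests of interactions first found in Y2H screens of HCV bait proteins against human cDNA libraries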
# Format: binding
# Details: validation of interaction with HCV protein CORE
# 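Wherever IMAP Y2H IMAP1 (number of IST) is given: yeast two-hybrid screens using HCV genotype 1b proteins fused to Gal4-DB as baits against prey cDNA libraries from human spleen and foetal brain, IMAP1 via transformation and IMAP2 via mating.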
# 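Wherever Interaction with viral protein is given: yeast two-hybrid screens using HCV genotype 1b proteins fused to Gal4-DB as baits against prey cDNA libraries from human spleen and foetal brain, IMAP1 via transformation and IMAP2 via mating.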
row,Molecule,Y2H matrices
1,B1,+
2,B2,+

# Same assay, conditions: validation of interaction with HCV protein NS3
row,Molecule,Y2H matrices
1,B3,+
2,B4,+
3,B5,+
4,B6,+
5,B7,+

# Tested on: HCV ORFs (Gal4-DB fusions)
# Assay: not given
# Format: binding, HCV genotype 1b, isolate con1
# Details: human protein listed by gene symbol; the value names the HCV protein it interacts with
row,Molecule,Interaction with viral protein
1,B3,NS3
2,B4,NS3
3,B1,CORE
4,B5,NS3
5,B6,NS3
6,B2,CORE
7,B7,NS3

# Target: T2, HCV ORFs (Gal4-DB fusions) (Hepatitis C virus genotype 1b, UniProt Q9WMX2)
# T2 construct: expressed in transfected cells; host or cells: Saccharomyces cerevisiae MAV203 (IMAP1) / AH109 (IMAP2)
# Assay: not given
# Format: binding, HCV genotype 1b, isolate con1
# Details: HCV protein CORE as bait; human protein as prey
row,Molecule,IMAP Y2H IMAP1 (number of IST)
1,B1,1
2,B2,1

# Same assay, conditions: HCV protein NS3 as bait; human protein as prey
row,Molecule,IMAP Y2H IMAP1 (number of IST)
1,B3,4
2,B4,1
3,B5,1
4,B6,1
5,B7,2

# Source: patent publication US20110091994A1, “Methods for Screening Compounds for Treating and/or Preventing an Hepatitis C Virus Infection” (priority 2008, published 2011)
